T1: human ART1 expressed on HEK293 cells (human, UniProt P52961 23-295)
T1 sequence: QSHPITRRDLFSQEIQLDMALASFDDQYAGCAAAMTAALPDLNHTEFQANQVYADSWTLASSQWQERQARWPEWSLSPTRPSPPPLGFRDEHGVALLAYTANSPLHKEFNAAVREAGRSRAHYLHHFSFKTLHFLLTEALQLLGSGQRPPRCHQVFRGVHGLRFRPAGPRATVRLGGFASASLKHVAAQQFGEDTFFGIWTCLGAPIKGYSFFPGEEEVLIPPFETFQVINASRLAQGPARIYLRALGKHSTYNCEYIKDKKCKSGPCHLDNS

T2: purified recombinant human ART1 (human, UniProt P52961 23-295)
T2 construct: Produced in HEK293 cells and purified; also called huART1; human ADP-ribosyltransferase 1
T2 sequence: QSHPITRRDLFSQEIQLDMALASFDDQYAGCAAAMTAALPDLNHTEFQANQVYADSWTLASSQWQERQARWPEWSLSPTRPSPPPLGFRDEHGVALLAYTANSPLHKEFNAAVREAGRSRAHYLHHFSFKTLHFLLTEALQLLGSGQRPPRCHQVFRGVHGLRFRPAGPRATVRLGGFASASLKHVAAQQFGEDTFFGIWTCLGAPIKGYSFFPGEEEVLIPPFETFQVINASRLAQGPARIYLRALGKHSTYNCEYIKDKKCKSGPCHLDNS

T3: purified recombinant mouse ART1 (mouse, UniProt Q60935 23-290)
T3 construct: Produced in HEK293 cells and purified; also called moART1; murine ART1
T3 sequence: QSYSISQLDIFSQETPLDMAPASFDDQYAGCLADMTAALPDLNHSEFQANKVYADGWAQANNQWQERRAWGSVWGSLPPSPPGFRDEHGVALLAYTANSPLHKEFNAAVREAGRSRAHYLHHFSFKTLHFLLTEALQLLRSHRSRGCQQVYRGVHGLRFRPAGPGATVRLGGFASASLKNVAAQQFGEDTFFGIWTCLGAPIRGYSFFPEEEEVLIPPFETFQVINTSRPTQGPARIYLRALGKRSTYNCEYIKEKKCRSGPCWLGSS

B1: 14G01 monoclonal antibody (antibody, V domains shown)
VH: QVQLQESGPGLVKPSETLSLTCTVSGGSISSYYWSWIRQPAGKGLEWIGRISTSGFTNYNPSLKSRVTMSVDSSKNQFSLKLSSLTAADTAVYYCARDGWGRVFDIWGLGTMVTVSS
VL: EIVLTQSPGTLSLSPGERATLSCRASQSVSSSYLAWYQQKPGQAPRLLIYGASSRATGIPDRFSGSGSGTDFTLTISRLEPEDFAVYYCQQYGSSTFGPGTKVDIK
notes: Purified from hybridoma supernatant; VH and VK are human; The antibody was captured on an anti-mouse Fc surface in SPR
B2: 22C12 monoclonal antibody (parental, mouse light chain) (antibody, V domains shown)
VH: QVTLKESGPVLVKPTETLTLTCTVSGFSLSNARMGVSWIRQPPGKALEWLAHIFSNDEKSYSTSLKSRLTISKDTSKSQVVLTMTNMDPVDTATYYCARIYGGDSWGYFDNWGQGTLVTVSS
VL: QIVLTQSPAIMSASLGEKVTMTCSASSSVSYMHWYQQKSGTSPKRWIYDTSKLASGVPARFSGSGSGTSYSLTISSMEAGDAATYYCQQWSSNPPTFGAGTKLELK
notes: Purified from hybridoma supernatant (AlivaMab Mouse); VH is human and VK is mouse; The antibody was captured on an anti-mouse Fc surface in SPR; also called 22C12 (mLC); mLC22C12

Tests used:
[1] = target: T1, human ART1 expressed on HEK293 cells; assay: cell-based or functional assay
[2] = target: T2, purified recombinant human ART1; assay: sensorgrams R [RU] against time [s] with fitted lines, panel '14G01 Binding huART1', huART1 at 100.0, 25.00, 12.50, 6.250, 3.125, 1.563 nM; format not told for this figure (FIG. 12 legend: SPR, antibody captured on anti-mouse Fc, 1:1 fit)
[3] = target: T3, purified recombinant mouse ART1; assay: sensorgrams R [RU] against time [s] with fitted lines, panel '14G01 Binding moART1', moART1 at 200.0, 100.0, 25.00, 12.50, 3.125, 1.563 nM; format not told for this figure (FIG. 12 legend: SPR, antibody captured on anti-mouse Fc, 1:1 fit)
[4] = target: T2, purified recombinant human ART1; assay: SPR; antibody captured on anti-mouse Fc surface, ART1 as analyte, 1:1 kinetic fit
Procedure: (§1) FIGS. 12A-12D. […] Sensorgrams are double-reference subtracted using a control surface and blank injections. Affinity constants were determined by kinetic fit using a 1:1 binding model.

[5] = target: T3, purified recombinant mouse ART1; assay: as above
Procedure: as §1

[6] = target: T1, human ART1 expressed on HEK293 cells; assay: panel 'ART1 Ab binding' on HEK293 cells transfected with ART1; y axis GMFI, Ratio to 2nd Only, x axis Log[Ab], nM (the legend calls it a NAD-Glo assay); the curve rises from about 3.3 to a plateau of about 13

| Binder | IC50 Cell Surface ADP-Ribosylation [1] [nM] | Kd [2] [nM] | Kd [3] [nM] | Kd [4] [nM] | Kd [5] [nM] | EC50 [6] [nM] |
| --- | --- | --- | --- | --- | --- | --- |
| B1 | 28 | 3.8 | 6.2 | 4 | 6 |  |
| B2 | 14 |  |  | 0.161 | 0.439 | 0.75 |
